Source: paper PMC9962925, “PKD autoinhibition in trans regulates activation loop autophosphorylation in cis” (Proceedings of the National Academy of Sciences of the …, 2023)

Experiments:
[1] = target: PKD1 kinase domain construct, unphosphorylated (PKD1^KD 0P), wild type (human) (UniProt Q15139); assay: SEC-MALS; 60 uL of purified protein at 2 mg/mL on an S200 10/300 column, room temperature, 20 mM HEPES pH 7.4, 150 mM KCl, 1 mM EDTA, 1 mM TCEP, 1% glycerol (Fig. 1H)
[2] = target: PKD1 kinase domain construct, unphosphorylated (PKD1^KD 0P), wild type (human) (UniProt Q15139); assay: SEC; analytical size exclusion chromatography of purified proteins (Fig. 1C); elution volumes calibrated to monomer and dimer masses by SEC-MALS
[3] = target: PKD1 ubiquitin-like dimerization domain (PKD1^ULD) (human); assay: as above
[4] = target: ULD-PKD1^KD chimera with (Gly)5 linker (human)
[5] = target: ULD-PKD1^KD chimera with (Gly)10 linker (human)
[6] = target: the molecule itself; assay: SEC; analytical size exclusion chromatography of purified proteins (Fig. 1C); elution volumes calibrated to monomer and dimer masses by SEC-MALS

Molecule: PKD1 kinase domain construct, unphosphorylated (PKD1^KD 0P), wild type (from UniProt Q15139 570-890) (domain or fragment)
- stoichiometry N [1]: 2
- stoichiometry N [2]: 2

Molecule: PKD1 ubiquitin-like dimerization domain (PKD1^ULD) (domain or fragment)
- stoichiometry N [3]: 2

Molecule: ULD-PKD1^KD chimera with (Gly)5 linker
- initial catalytic rate of Syntide-2 phosphorylation at 50 nM, against PKD1^KD alone [4]: 5 fold

Molecule: ULD-PKD1^KD chimera with (Gly)10 linker
- initial catalytic rate of Syntide-2 phosphorylation at 50 nM, against PKD1^KD alone [5]: 5 fold

B1: PKD1^KD S738E (domain or fragment, human, UniProt Q15139 570-890, looked up)
chain: QIQENVDISTVYQIFPDEVLGSGQFGIVYGGKHRKTGRDVAIKIIDKLRFPTKQESQLRNEVAILQNLHHPGVVNLECMFETPERVFVVMEKLHGDMLEMILSSEKGRLPEHITKFLITQILVALRHLHFKNIVHCDLKPENVLLASADPFPQVKLCDFGFARIIGEKEFRRSVVGTPAYLAPEVLRNKGYNRSLDMWSVGVIIYVSLSGTFPFNEDEDIHDQIQNAAFMYPPNPWKEISHEAIDLINNLLQVKMRKRYSVDKTLSHPWLQDYQTWLDLRELECKIGERYITHESDDLRWEKYAGEQGLQYPTHLINPSAS
notes: Protein kinase D1 (PKD1), human, kinase domain construct, residues 570 to 890; also called single glutamate substitution of S738; source: recombinant, purified to homogeneity
- binding result [6]: binds

B2: PKD1^KD S742E (domain or fragment, human, UniProt Q15139 570-890, looked up)
chain: QIQENVDISTVYQIFPDEVLGSGQFGIVYGGKHRKTGRDVAIKIIDKLRFPTKQESQLRNEVAILQNLHHPGVVNLECMFETPERVFVVMEKLHGDMLEMILSSEKGRLPEHITKFLITQILVALRHLHFKNIVHCDLKPENVLLASADPFPQVKLCDFGFARIIGEKSFRREVVGTPAYLAPEVLRNKGYNRSLDMWSVGVIIYVSLSGTFPFNEDEDIHDQIQNAAFMYPPNPWKEISHEAIDLINNLLQVKMRKRYSVDKTLSHPWLQDYQTWLDLRELECKIGERYITHESDDLRWEKYAGEQGLQYPTHLINPSAS
notes: Protein kinase D1 (PKD1), human, kinase domain construct, residues 570 to 890; also called single glutamate substitution of S742; source: recombinant, purified to homogeneity
- binding result [6]: binds

B3: PKD1^KD 2A (S738A/S742A) (domain or fragment, human, UniProt Q15139 570-890, looked up)
chain: QIQENVDISTVYQIFPDEVLGSGQFGIVYGGKHRKTGRDVAIKIIDKLRFPTKQESQLRNEVAILQNLHHPGVVNLECMFETPERVFVVMEKLHGDMLEMILSSEKGRLPEHITKFLITQILVALRHLHFKNIVHCDLKPENVLLASADPFPQVKLCDFGFARIIGEKAFRRAVVGTPAYLAPEVLRNKGYNRSLDMWSVGVIIYVSLSGTFPFNEDEDIHDQIQNAAFMYPPNPWKEISHEAIDLINNLLQVKMRKRYSVDKTLSHPWLQDYQTWLDLRELECKIGERYITHESDDLRWEKYAGEQGLQYPTHLINPSAS
notes: the sites are S738 and S742; source: recombinant, purified to homogeneity
- stoichiometry N [6]: 2
